Assay results reported in the supplement of paper PMC5998384.

Legend:
HeLa Kyoto [1] = test: solubility in G1/S (NP-40 vs SDS abundance) (log2 ratio); higher = more soluble; settings: cell cycle stage: G1/S
HeLa Kyoto [2] = test: solubility change mitosis vs G1/S (difference of NP-40 vs SDS log2 ratios) (log2 ratio difference); higher = more soluble in mitosis
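Wherever solubility change mitosis vs G1/S (difference of NP-40 vs SDS log2 ratios) is given: synchronized HeLa Kyoto cells (double thymidine block for G1/S, nocodazole release for mitosis), protein amounts in NP-40 versus SDS lysates quantified by mass spectrometry, three biological replicates.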
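Wherever solubility in G1/S (NP-40 vs SDS abundance) is given: HeLa Kyoto cells arrested at G1/S by double thymidine block, proteins quantified by TMT10plex mass spectrometry in mild NP-40 versus SDS extracts, three biological replicates.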

Sequence	solubility in G1/S (log2) (HeLa Kyoto [1])	solubility change mitosis (log2) (HeLa Kyoto [2])
MDEPPFSEAALEQALGEPCDLDAALLTDIEDMLQLINNQDSDFPGLFDPPYAGSGAGGTDPASPDTSSPGSLSPPPATLSSSLEAFLSGPQAAPSPLSPPQPAPTPLKMYPSMPAFSPGPGIKEESVPLSILQTPTPQPLPGALLPQSFPAPAPPQFSSTPVLGYPSPPGGFSTGSPPGNTQQPLPGLPLASPPGVPPVSLHTQVQSVVPQQLLTVTAAPTAAPVTTTVTSQIQQVPVLLQPHFIKADSLLLTAMKTDGATVKAAGLSPLVSGTTVQTGPLPTLVSGGTILATVPLVVDAEKLPINRLAAGSKAPASAQSRGEKRTAHNAIEKRYRSSINDKIIELKDLVVGTEAKLNKSAVLRKAIDYIRFLQHSNQKLKQENLSLRTAVHKSKSLKDLVSACGSGGNTDVLMEGVKTEVEDTLTPPPSDAGSPFQSSPLSLGSRGSGSGGSGSDSEPDSPVFEDSKAKPEQRPSLHSRGMLDRSRLALCTLVFLCLSCNPLASLLGARGLPSPSDTTSVYHSPGRNVLGTESRDGPGWAQWLLPPVVWLLNGLLVLVSLVLLFVYGEPVTRPHSGPAVYFWRHRKQADLDLARGDFAQAAQQLWLALRALGRPLPTSHLDLACSLLWNLIRHLLQRLWVGRWLAGRAGGLQQDCALRVDASASARDAALVYHKLHQLHTMGKHTGGHLTATNLALSALNLAECAGDAVSVATLAEIYVAAALRVKTSLPRALHFLTRFFLSSARQACLAQSGSVPPAMQWLCHPVGHRFFVDGDWSVLSTPWESLYSLAGNPVDPLAQVTQLFREHLLERALNCVTQPNPSPGSADGDKEFSDALGYLQLLNSCSDAAGAPAYSFSISSSMATTTGVDPVAKWWASLTAVVIHWLRRDEEAAERLCPLVEHLPRVLQESERPLPRAALHSFKAARALLGCAKAESGPASLTICEKASGYLQDSLATTPASSSIDKAVQLFLCDLLLVVRTSLWRQQQPPAPAPAAQGTSSRPQASALELRGFQRDLSSLRRLAQSFRPAMRRVFLHEATARLMAGASPTRTHQLLDRSLRRRAGPGGKGGAVAELEPRPTRREHAEALLLASCYLPPGFLSAPGQRVGMLAEAARTLEKLGDRRLLHDCQQMLMRLGGGTTVTSS [SREBF1]	-0.139	-0.263
MDHTDNELQGTNSSGSLGGLDVRRRIPIKLISKQANKAKPAPRTQRTINRMPAKAPPGDEEGFDYNEEERYDCKGGELFANQRRFPGHLFWDFQINILGEKDDTPVHFCDKCGLPIKIYGRMIPCKHVFCYDCAILHEKKGDKMCPGCSDPVQRIEQCTRGSLFMCSIVQGCKRTYLSQRDLQAHINHRHMRAGKPVTRASLENVHPPIAPPPTEIPERFIMPPDKHHMSHIPPKQHIMMPPPPLQHVPHEHYNQPHEDIRAPPAELSMAPPPPRSVSQETFRISTRKHSNLITVPIQDDSNSGAREPPPPAPAPAHHHPEYQGQPVVSHPHHIMPPQQHYAPPPPPPPPISHPMPHPPQAAGTPHLVYSQAPPPPMTSAPPPITPPPGHIIAQMPPYMNHPPPGPPPPQHGGPPVTAPPPHHYNPNSLPQFTEDQGTLSPPFTQPGGMSPGIWPAPRGPPPPPRLQGPPSQTPLPGPHHPDQTRYRPYYQ [CBLL1]	0.175	-0.286
MDIAIHHPWIRRPFFPFHSPSRLFDQFFGEHLLESDLFPTSTSLSPFYLRPPSFLRAPSWFDTGLSEMRLEKDRFSVNLDVKHFSPEELKVKVLGDVIEVHGKHEERQDEHGFISREFHRKYRIPADVDPLTITSSLSSDGVLTVNGPRKQVSGPERTIPITREEKPAVTAAPKK [CRYAB]	-0.171	0.00397
MDLVGVASPEPGTAAAWGPSKCPWAIPQNTISCSLADVMSEQLAKELQLEEEAAVFPEVAVAEGPFITGENIDTSSDLMLAQMLQMEYDREYDAQLRREEKKFNGDSKVSISFENYRKVHPYEDSDSSEDEVDWQDTRDDPYRPAKPVPTPKKGFIGKGKDITTKHDEVVCGRKNTARMENFAPEFQVGDGIGMDLKLSNHVFNALKQHAYSEERRSARLHEKKEHSTAEKAVDPKTRLLMYKMVNSGMLETITGCISTGKESVVFHAYGGSMEDEKEDSKVIPTECAIKVFKTTLNEFKNRDKYIKDDFRFKDRFSKLNPRKIIRMWAEKEMHNLARMQRAGIPCPTVVLLKKHILVMSFIGHDQVPAPKLKEVKLNSEEMKEAYYQTLHLMRQLYHECTLVHADLSEYNMLWHAGKVWLIDVSQSVEPTHPHGLEFLFRDCRNVSQFFQKGGVKEALSERELFNAVSGLNITADNEADFLAEIEALEKMNEDHVQKNGRKAASFLKDDGDPPLLYDE [RIOK3]	0.0978	-0.00535
MDNAVDGLDKASIANSDGPTAGSQTPPFKRKGKLSTIGKIFKPWKWRKKKTSDKFRETSAVLERKISTRQSREELIRRGVLKELPDQDGDVTVNFENSNGHMIPIGEESTREENVVKSEEGNGSVSEKTPPLEEQAEDKKENTENHSETPAAPALPPSAPPKPRPKPKPKKSPVPPKGATAGASHKGDEVPPIKKNTKAPGKQAPVPPPKPASRNTTREAAGSSHSKKTTGSKASASPSTSSTSSRPKASKETVSSKAGTVGTTKGKRKTDKQPITSHLSSDTTTSGTSDLKGEPAETRVESFKLEQTVPGAEEQNTGKFKSMVPPPPVAPAPSPLAPPLPLEDQCITASDTPVVLVSVGADLPVSALDPSQLLWAEEPTNRTTLYSGTGLSVNRENAKCFTTKEELGKTVPQLLTPGLMGESSESFSASEDEGHREYQANDSDSDGPILYTDDEDEDEDEDGSGESALASKIRRRDTLAIKLGNRPSKKELEDKNILQRTSEEERQEIRQQIGTKLVRRLSQRPTTEELEQRNILKQKNEEEEQEAKMELKRRLSRKLSLRPTVAELQARRILRFNEYVEVTDSPDYDRRADKPWARLTPADKAAIRKELNEFKSTEMEVHEESRQFTRFHRP [PHACTR2]	0.45	-0.286
MDPDPQAGVQVGMRVVRGVDWKWGQQDGGEGGVGTVVELGRHGSPSTPDRTVVVQWDQGTRTNYRAGYQGAHDLLLYDNAQIGVRHPNIICDCCKKHGLRGMRWKCRVCLDYDLCTQCYMHNKHELAHAFDRYETAHSRPVTLSPRQGLPRIPLRGIFQGAKVVRGPDWEWGSQDGGEGKPGRVVDIRGWDVETGRSVASVTWADGTTNVYRVGHKGKVDLKCVGEAAGGFYYKDHLPRLGKPAELQRRVSADSQPFQHGDKVKCLLDTDVLREMQEGHGGWNPRMAEFIGQTGTVHRITDRGDVRVQFNHETRWTFHPGALTKHHSFWVGDVVRVIGDLDTVKRLQAGHGEWTDDMAPALGRVGKVVKVFGDGNLRVAVAGQRWTFSPSCLVAYRPEEDANLDVAERARENKSSLSVALDKLRAQKSDPEHPGRLVVEVALGNAARALDLLRRRPEQVDTKNQGRTALQVAAYLGQVELIRLLLQARAGVDLPDDEGNTALHYAALGNQPEATRVLLSAGCRADAINSTQSTALHVAVQRGFLEVVRALCERGCDVNLPDAHSDTPLHSAISAGTGASGIVEVLTEVPNIDVTATNSQGFTLLHHASLKGHALAVRKILARARQLVDAKKEDGFTALHLAALNNHREVAQILIREGRCDVNVRNRKLQSPLHLAVQQAHVGLVPLLVDAGCSVNAEDEEGDTALHVALQRHQLLPLVADGAGGDPGPLQLLSRLQASGLPGSAELTVGAAVACFLALEGADVSYTNHRGRSPLDLAAEGRVLKALQGCAQRFRERQAGGGAAPGPRQTLGTPNTVTNLHVGAAPGPEAAECLVCSELALLVLFSPCQHRTVCEECARRMKKCIRCQVVVSKKLRPDGSEVASAAPAPGPPRQLVEELQSRYRQMEERITCPICIDSHIRLVFQCGHGACAPCGSALSACPICRQPIRDRIQIFV [MIB2]	-0.12	-0.0211
MDPIRSFCGKLRSLASTLDCETARLQRALDGEESDFEDYPMRILYDLHSEVQTLKDDVNILLDKARLENQEGIDFIKATKVLMEKNSMDIMKIREYFQKYGYSPRVKKNSVHEQEAINSDPELSNCENFQKTDVKDDLSDPPVASSCISEKSPRSPQLSDFGLERYIVSQVLPNPPQAVNNYKEEPVIVTPPTKQSLVKVLKTPKCALKMDDFECVTPKLEHFGISEYTMCLNEDYTMGLKNARNNKSEEAIDTESRLNDNVFATPSPIIQQLEKSDAEYTNSPLVPTFCTPGLKIPSTKNSIALVSTNYPLSKTNSSSNDLEVEDRTSLVLNSDTCFENLTDPSSPTISSYENLLRTPTPPEVTKIPEDILQLLSKYNSNLATPIAIKAVPPSKRFLKHGQNIRDVSNKEN [SKA3]	0.436	0.0344
MDPLRAQQLAAELEVEMMADMYNRMTSACHRKCVPPHYKEAELSKGESVCLDRCVSKYLDIHERMGKKLTELSMQDEELMKRVQQSSGPA [TIMM10]	-0.415	0.197
